Data reported in article PMC5577655.

Tested on: NCCCC[C@H](N)C(=O)O
Assay: purified protein

## lysyl-tRNA synthetase 1 (LdLysRS-1) (Leishmania donovani)
  Km: 111 ± 15 µM
